{
  "source": "paper PMC11509957",
  "about": "“A New Activity Assay Method for Diamine Oxidase Based on Matrix-Assisted Laser Desorption/Ionization Time-of-Flight Mass Spectrometry” (Molecules, 2024)",
  "proteins": {"B1": {"name": "Pea seedling amine oxidase (PSAO); diamine oxidase (DAO) (Lathyrus oleraceus) (protein)", "chain": "VTPLHVQHPLDPLTKEEFLAVQTIVQNKYPISNNRLAFHYIGLDDPEKDHVLRYETHPTLVSIPRKIFVVAIINSQTHEILINLRIRSIVSDNIHNGYGFPILSVDEQSLAIKLPLKYPPFIDSVKKRGLNLSEIVCSSFTMGWFGEEKNVRTVRLDCFMKESTVNIYVRPITGITIVADLDLMKIVEYHDRDIEAVPTAENTEYQVSKQSPPFGPKQHSLTSHQPQGPGFQINGHSVSWANWKFHIGFDVRAGIVISLASIYDLEKHKSRRVLYKGYISELFVPYQDPTEEFYFKTFFDSGEFGFGLSTVSLIPNRDCPPHAQFIDTYVHSANGTPILLKNAICVFEQYGNIMWRHTENGIPNESIEESRTEVNLIVRTIVTVGNYDNVIDWEFKASGSIKPSIALSGILEIKGTNIKHKDEIKEDLHGKLVSANSIGIYHDHFYIYYLDFDIDGTHNSFEKTSLKTVRIKDGSSKRKSYWTTETQTAKTESDAKITIGLAPAELVVVNPNIKTAVGNEVGYRLIPAIPAHPLLTEDDYPQIRGAFTNYNVWVTAYNRTEKWAGGLYVDHSRGDDTLAVWTKQNREIVNKDIVMWHVVGIHHVPAQEDFPIMPLLSTSFELRPTNFFERNPVLKTLSPRDVAWPGCSN", "notes": "native enzyme purified to homogeneity from 7-day-old etiolated pea seedlings (roots and cotyledons removed); homodimer, 72 kDa subunit; Cu(II) and topaquinone"}},
  "experiment_in_all_cases": "purified protein",
  "type_in_all_cases": "biochemical, Lathyrus oleraceus",
  "key": {"[1]": {"substrate": "N=C(N)NCCCCN", "details": "0.1 mol/L potassium phosphate pH 7.0, 30 °C, O2 co-substrate"}, "[2]": {"substrate": "NCCC(O)CN", "details": "0.1 mol/L potassium phosphate pH 7.0, 30 °C, O2 co-substrate"}, "[3]": {"substrate": "NCC1CCNCC1", "details": "0.1 mol/L potassium phosphate pH 7.0, 30 °C, O2 co-substrate"}, "[4]": {"substrate": "NCCCCCCN", "details": "0.1 mol/L potassium phosphate pH 7.0, 30 °C, O2 co-substrate, excess substrate inhibition above 500 µmol/L"}, "[5]": {"substrate": "NCCCCCN", "details": "0.1 mol/L potassium phosphate pH 7.0, 30 °C, O2 co-substrate, excess substrate inhibition above 500 µmol/L"}, "[6]": {"substrate": "NCCCCN", "details": "0.1 mol/L potassium phosphate pH 7.0, 30 °C, O2 co-substrate"}},
  "data": [
    {"protein": "B1", "values": [
      {"measurement": "Km", "setting": "[1]", "result": "446 ± 23", "unit": "µM"},
      {"measurement": "kcat", "setting": "[1]", "result": 8.4, "unit": "s⁻¹"},
      {"measurement": "kcat/Km", "setting": "[1]", "result": 18800, "unit": "M⁻¹ s⁻¹"},
      {"measurement": "Km", "setting": "[2]", "result": "589 ± 33", "unit": "µM"},
      {"measurement": "kcat", "setting": "[2]", "result": 4.9, "unit": "s⁻¹"},
      {"measurement": "kcat/Km", "setting": "[2]", "result": 8320, "unit": "M⁻¹ s⁻¹"},
      {"measurement": "Km", "setting": "[3]", "result": "618 ± 24", "unit": "µM"},
      {"measurement": "kcat", "setting": "[3]", "result": 4.2, "unit": "s⁻¹"},
      {"measurement": "kcat/Km", "setting": "[3]", "result": 6800, "unit": "M⁻¹ s⁻¹"},
      {"measurement": "Km", "setting": "[4]", "result": "95 ± 7", "unit": "µM"},
      {"measurement": "kcat", "setting": "[4]", "result": 13, "unit": "s⁻¹"},
      {"measurement": "kcat/Km", "setting": "[4]", "result": 137000, "unit": "M⁻¹ s⁻¹"},
      {"measurement": "Km", "setting": "[5]", "result": "148 ± 8", "unit": "µM"},
      {"measurement": "kcat", "setting": "[5]", "result": 60.9, "unit": "s⁻¹"},
      {"measurement": "kcat/Km", "setting": "[5]", "result": 411000, "unit": "M⁻¹ s⁻¹"},
      {"measurement": "Km", "setting": "[6]", "result": "289 ± 15", "unit": "µM"},
      {"measurement": "kcat", "setting": "[6]", "result": 47.4, "unit": "s⁻¹"},
      {"measurement": "kcat/Km", "setting": "[6]", "result": 164000, "unit": "M⁻¹ s⁻¹"}
    ]}
  ]
}
